Substrate: COP(=O)(O)OC(=O)[C@@H]1N2C(=O)[C@@H](NC(=O)Cc3ccccc3)[C@H]2SC1(C)C
Assay: Km against beta-lactamase in Escherichia coli

B1: Beta-lactamase TEM (Escherichia coli), P62593 (protein)
chain: MSIQHFRVALIPFFAAFCLPVFAHPETLVKVKDAEDQLGARVGYIELDLNSGKILESFRPEERFPMMSTFKVLLCGAVLSRVDAGQEQLGRRIHYSQNDLVEYSPVTEKHLTDGMTVRELCSAAITMSDNTAANLLLTTIGGPKELTAFLHNMGDHVTRLDRWEPELNEAIPNDERDTTMPAAMATTLRKLLTGELLTLASRQQLIDWMEADKVAGPLLRSALPAGWFIADKSGAGERGSRGIIAALGPDGKPSRIVVIYTTGSQATMDERNRQIAEIGASLIKHW
Km: > 50 mM
